Measured values published in patent US20260027152A1 (SANGAMO THERAPEUTICS, published 2026).

T1: human IL23Ra (coated on beads) (human, UniProt Q5VWK5 24-353, limits assumed)
T1 construct: also called human IL-23R alpha subunit
T1 sequence (looked up): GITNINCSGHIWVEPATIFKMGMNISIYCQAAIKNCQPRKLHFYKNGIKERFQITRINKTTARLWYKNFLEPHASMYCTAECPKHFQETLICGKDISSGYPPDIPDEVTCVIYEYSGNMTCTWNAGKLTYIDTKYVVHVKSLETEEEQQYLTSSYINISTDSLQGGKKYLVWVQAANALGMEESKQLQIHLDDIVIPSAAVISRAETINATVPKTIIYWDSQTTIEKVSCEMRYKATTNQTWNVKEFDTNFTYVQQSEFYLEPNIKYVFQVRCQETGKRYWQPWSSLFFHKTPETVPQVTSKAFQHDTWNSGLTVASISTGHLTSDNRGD

T2: mouse IL23Ra (coated on beads) (mouse, UniProt Q8K4B4 24-372, limits assumed)
T2 construct: also called mouse IL-23R alpha subunit
T2 sequence (looked up): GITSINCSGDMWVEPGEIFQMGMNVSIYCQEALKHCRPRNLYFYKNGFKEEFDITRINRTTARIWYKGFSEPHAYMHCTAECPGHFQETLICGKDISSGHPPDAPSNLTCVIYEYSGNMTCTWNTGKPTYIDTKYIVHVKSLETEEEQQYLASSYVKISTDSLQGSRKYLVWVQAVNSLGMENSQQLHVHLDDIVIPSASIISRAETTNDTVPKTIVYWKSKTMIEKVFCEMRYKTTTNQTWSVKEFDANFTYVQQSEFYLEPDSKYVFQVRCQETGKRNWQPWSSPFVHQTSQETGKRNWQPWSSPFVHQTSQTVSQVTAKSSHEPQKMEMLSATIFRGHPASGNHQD

B1: CAR #2 (anti-IL-23R chimeric antigen receptor with scFv IL23RLamS4-G3, CD8 hinge, CD8 TM, CD28, CD3 zeta) (other)
chain: SYPYDVPDYASQSVLTQPPSVSGAPGQRVTISCTGSSSNIGAGYDVHWYQQLPGTAPKLLIYGNNNRPSGVPDRFSGSKSGTSASLAITGLQAEDEADYYCQSYDTGLSAWVFGGGTKLTVLGGGGSGGGGSGGGGSQLQLQESGPGLVKPSETLSLTCTVSGGSITSSNYYWGWIRQPPGKGLEWIGSIYYSGNTYYNPSLKSRVTISVDTSKNQFSLKLSSVTAADTAVYYCAREWSPYESEGFDYWGQGTLVTVSSTTTPAPRPPTPAPTIASQPLSLRPEACRPAAGGAVHTRGLDFACDIYIWAPLAGTCGVLLLSLVITLYCRSKRSRLLHSDYMNMTPRRPGPTRKHYQPYAPPRDFAAYRSRVKFSRSADAPAYQQGQNQLYNELNLGRREEYDVLDKRRGRDPEMGGKPRRKNPQEGLYNELQKDKMAEAYSEIGMKGERRRGKGHDGLYQGLSTATKDTYDALHMQALPPR
B2: anti-IL-23R scFv IL23RLamS4-G3 (scFv)
scFv: QSVLTQPPSVSGAPGQRVTISCTGSSSNIGAGYDVHWYQQLPGTAPKLLIYGNNNRPSGVPDRFSGSKSGTSASLAITGLQAEDEADYYCQSYDTGLSAWVFGGGTKLTVLGGGGSGGGGSGGGGSQLQLQESGPGLVKPSETLSLTCTVSGGSITSSNYYWGWIRQPPGKGLEWIGSIYYSGNTYYNPSLKSRVTISVDTSKNQFSLKLSSVTAADTAVYYCAREWSPYESEGFDYWGQGTLVTVSS
modifications: biotinylated (sites not given)
notes: also called hmIL23R LamS4-G3; scFv of the present disclosure

Legend:
[1] = target: IL-23R (coated on beads, Example 1); assay: cell-based or functional assay
[2] = target: T1, human IL23Ra (coated on beads); assay: flow cytometry; biotinylated scFv on human IL23Ra-coated beads, detected with APC-streptavidin, EC50 from median fluorescence intensity
Method: (§1) The indicated scFVs were produced in mammalian 293tcells, purified and biotinylated. Biotinylated scFvs were then incubated at 25° C. with mouse or human IL23Ra-coated beads for 30 min in PBS. After cold washing, bound IL23R bound scFV was detected by incubation with APC-labelled Streptavidin and analysis of the samples on a Flow-cytometer. An EC50 was calculated based on the median fluorescence intensity from each condition. Calculation, curve fitting and EC50 calculation was performed via Graphpad Prism.

[3] = target: T2, mouse IL23Ra (coated on beads); assay: flow cytometry; biotinylated scFv on mouse IL23Ra-coated beads, detected with APC-streptavidin, EC50 from median fluorescence intensity
Method: as §1

[4] = target: T2, mouse IL23Ra (coated on beads); assay: ratio of the EC50 values on mouse and human IL23Ra-coated beads (flow cytometry)
Method: as §1

Chain of IL-23R (coated on beads, Example 1) (Q5VWK5 whole entry): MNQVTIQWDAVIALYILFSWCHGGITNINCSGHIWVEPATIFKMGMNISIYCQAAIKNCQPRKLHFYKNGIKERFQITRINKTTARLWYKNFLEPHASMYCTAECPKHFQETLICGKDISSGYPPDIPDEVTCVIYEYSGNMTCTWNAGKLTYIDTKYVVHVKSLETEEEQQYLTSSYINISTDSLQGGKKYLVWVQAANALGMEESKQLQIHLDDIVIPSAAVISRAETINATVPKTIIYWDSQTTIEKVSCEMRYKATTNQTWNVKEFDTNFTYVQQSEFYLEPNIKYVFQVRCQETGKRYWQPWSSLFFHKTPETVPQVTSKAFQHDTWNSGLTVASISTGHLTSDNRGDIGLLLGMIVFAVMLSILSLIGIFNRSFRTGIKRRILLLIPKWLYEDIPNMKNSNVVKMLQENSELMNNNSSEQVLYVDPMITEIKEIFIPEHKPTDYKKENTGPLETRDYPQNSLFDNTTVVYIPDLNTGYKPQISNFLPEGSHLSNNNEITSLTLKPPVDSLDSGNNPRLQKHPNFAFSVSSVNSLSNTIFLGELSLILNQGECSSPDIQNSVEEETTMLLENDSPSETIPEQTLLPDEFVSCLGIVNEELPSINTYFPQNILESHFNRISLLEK

| Binder | CD69+ cells (CAR-Treg activation) after 24 h with IL-23R coated beads, fold increase [1] [fold] | EC50 [2] [nM] | EC50 [3] [nM] | fold difference in binding affinity between human IL23R and mouse IL23R [4] [fold] |
| --- | --- | --- | --- | --- |
| B1 | 3.6 |  |  |  |
| B2 |  | 37.6 | 53.1 | ~1.4 |
